Here are results for two molecules from patent US20230212239A1, “INHIBITORS OF CBL AUTOINHIBITION AND RELATED METHODS” (THE HOSPITAL FOR SICK CHILDREN, priority 2020, published 2023).

“Also recorded” adds a separate entry of the source.

Assay type in all cases: biochemical
The target in data set [1] is T1, phosphorylated CBL (pCBL) (Homo sapiens, UniProt P22681).
T1 construct: GST (N, cleaved yes); made in house
T1 sequence (P22681 2-436): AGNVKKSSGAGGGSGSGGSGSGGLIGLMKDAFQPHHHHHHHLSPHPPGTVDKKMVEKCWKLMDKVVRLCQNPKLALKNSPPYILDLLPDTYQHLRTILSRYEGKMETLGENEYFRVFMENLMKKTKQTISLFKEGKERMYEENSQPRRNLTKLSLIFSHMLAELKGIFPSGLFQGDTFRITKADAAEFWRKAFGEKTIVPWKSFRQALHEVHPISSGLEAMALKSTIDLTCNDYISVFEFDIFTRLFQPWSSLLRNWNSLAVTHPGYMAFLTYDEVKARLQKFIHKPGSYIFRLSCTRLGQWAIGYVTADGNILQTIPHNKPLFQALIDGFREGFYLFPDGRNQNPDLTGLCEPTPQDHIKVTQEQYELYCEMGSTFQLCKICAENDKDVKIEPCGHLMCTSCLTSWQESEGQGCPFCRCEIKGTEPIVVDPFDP
Briefly: In vitro ubiquitination assay, anti-ubiquitin immunoblot, phosphorylated CBL. The following applies: added to phosphorylated CBL. The text has this:
(§1) Given that binding of SLAP2 and the LHR-RING would be mutually exclusive (FIG. 8C), we reasoned that binding of SLAP2 to CBL could displace the LHR-RING, thereby promoting the catalytically competent conformation. To test this hypothesis, an in vitro ubiquitination assay in which E3 ligase activity is detected by a smear at high molecular weight on an anti-ubiquitin (Ub) immunoblot was employed. […] To further compare and quantify CBL ubiquitin ligase activity, a chemiluminescence based assay which measures the total amount of polyubiquitylated products formed in an in vitro reaction was used. In this assay, production of polyubiquitylated proteins increased upon addition of SLAP2 or pSLAP2 to CBL, compared to CBL alone (FIG. 9C and FIG. 10A).
In vitro ubiquitination reactions were prepared with 20 pmol of CBL or pCBL and 60 pmol of hSLAP2 or phosphorylated hSLAP2 (pSLAP2) for both WT and mutants. Reagents were thawed and reactions prepared on ice. […]

In data set [2] the target is T2, CBL TKBD-LHR-RING (Homo sapiens, UniProt P22681).
T2 construct: GST (N, cleaved yes); made in house; host or cells: E. coli BL-21
T2 sequence (P22681 2-436): T1 sequence (P22681 2-436)
Briefly: Chemiluminescence based E3LITE assay of total polyubiquitylated products. Conditions: added to CBL, compared to CBL alone.
Description: as §1
Ubiquitination reactions were set up as above (25 µL total volume) in triplicate and diluted with reaction buffer after completion (1:40 for pCBL, 1:15 for all other reactions). […] Wells were washed four times with PBS-T and 25 µL of prepared Immobilon Western Chemiluminescent HRP Substrate (Millipore #P90719) added to each well immediately prior to the plate being read on a Synergy Neo2 Plate Reader (BioTek Instruments). […] Standard deviation of the reaction averages was calculated and used as a measure of error. Each reaction set was analyzed at least twice with fresh protein purifications.

Data set [3] addresses T3, CBL TKBD-LHR-RING (2-436), unphosphorylated (Homo sapiens, UniProt P22681).
T3 construct: GST (N, cleaved yes); made in house; host or cells: E. coli BL-21
T3 sequence (P22681 2-436): T1 sequence (P22681 2-436)
Briefly: In vitro ubiquitination assay, anti-ubiquitin immunoblot. The following applies: added to unphosphorylated CBL; 20 pmol CBL, 60 pmol SLAP2/pSLAP2.
Description: as §1
In vitro ubiquitination reactions were prepared with 20 pmol of CBL or pCBL and 60 pmol of hSLAP2 or phosphorylated hSLAP2 (pSLAP2) for both WT and mutants. Reagents were thawed and reactions prepared on ice. CBL and SLAP2 were mixed in PBS (with 5 mM βME, 5 mM caproic acid, 0.5 mM PMSF, and 0.5 mM Na3VO4) at rt for 5-10 min before addition of master mix (42 pmol E1 (UBE1, Boston Biochem or Ubiquitin-Proteasome Biotechnologies), 0.1 µmol E2 (UbcH5b/UBE2D2, Boston Biochem #E2-622), […], and 11.6 µmol ubiquitin (Boston Biochem #U-100H) in reaction buffer (0.2 M Tris pH 7.5, 10 mM MgCl2, 2 mM DTT). Reactions were incubated at 30° C. shaking at 500-700 rpm for 60-110 minutes and terminated by addition of SDS 2X loading buffer and boiling for 5-10 minutes. Equal volumes of each reaction were loaded on 12.5% SDS-PAGE gel, transferred to PVDF membrane, and immunoblotted for ubiquitin as per standard protocols (anti-ubiquitin antibody P4G7, BioLegend #838701, 1:1000; anti-mouse IgG HRP-linked antibody, Cell Signaling Technology #7076, 1:10000; Western Lightning Plus ECL, Perkin Elmer).

B1: pSLAP2: tyrosine phosphorylated SLAP2 expressed in TKB1 cells (protein, UniProt Q9H6Q3 2-261, looked up)
Src-like-adapter 2: GSLPSRRKSLPSPSLSSSVQGQGPVTMEAERSKATAVALGSFPAGGPAELSLRLGEPLTIVSEDGDWWTVLSEVSGREYNIPSVHVAKVSHGWLYEGLSREKAEELLLLPGNPGGAFLIRESQTRRGSYSLSVRLSRPASWDRIRHYRIHCLDNGWLYISPRLTFPSLQALVDHYSELADDICCLLKEPCVLQRAGPLPGKDIPLPVTVQRTPLNWKELDSSLLFSEAATGEESLLSEGLRESLSFYISLNDEAVSLDDA
modifications: tyrosine phosphorylated
notes: tyrosine phosphorylated SLAP2 expressed in TKB1 cells
In the case of B1, the “ubiquitination activity of active pCBL” value in data set [1] is “Neither addition of SLAP2 nor pSLAP2 to active pCBL appeared to further enhance or diminish ubiquitination activity”. Further, the “production of polyubiquitylated proteins / CBL ligase activity” value in data set [2] was “increased; also recorded: stimulated CBL ligase activity to a greater extent than SLAP2”. The “CBL ubiquitination activity (anti-Ub immunoblot)” value in data set [3] is recorded as “stimulated CBL ubiquitination activity; also recorded: promote CBL ubiquitination activity to a greater extent than the addition of SLAP2”.

B2: Trx-His(6)-Δlinker-hSLAP2 (human SLAP2 29-261) (other)
chain: EAERSKATAVALGSFPAGGPAELSLRLGEPLTIVSEDGDWWTVLSEVSGREYNIPSVHVAKVSHGWLYEGLSREKAEELLLLPGNPGGAFLIRESQTRRGSYSLSVRLSRPASWDRIRHYRIHCLDNGWLYISPRLTFPSLQALVDHYSELADDICCLLKEPCVLQRAGPLPGKDIPLPVTVQRTPLNWKELDSSLLFSEAATGEESLLSEGLRESLSFYISLNDEAVSLDDA
notes: also called Trx-His-SLAP2; SLAP2 WT; not shown: N-terminal thioredoxin (Trx)-His(6)-TEV-site tag and linker of the modified pET32a (Δlinker version)
For B2, the “ubiquitination activity of active pCBL” value in data set [1] is listed as “Neither addition of SLAP2 nor pSLAP2 to active pCBL appeared to further enhance or diminish ubiquitination activity”. The “production of polyubiquitylated proteins / CBL ligase activity” value in data set [2] is “increased”. Moreover, the “CBL ubiquitination activity (anti-Ub immunoblot)” value in data set [3] was “stimulated CBL ubiquitination activity”.
